Variants at the floor of the assay were thinned out.
B1: TPR 5TU (parent)
chain: GGAUCUUCUCGAUCUAACAAAAAAGACAAAUCUGCCACAAAGCUUGAGAGCAUCUUCGGAUGCAGAGGCGGCAGCCUUCGGUGGCGCGAUAGCGCCAACGUUCUCAACUAUGACACGCAAAACGCGUGCUCCGUUGAAUGGAGUUUAUCAUG

Variants of: B1
Test: polymerase ribozyme fitness, log enrichment relative to wild type (log ratio); higher = more active; in vitro selection for triplet polymerase activity
Procedure, shortened: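 Mutant libraries were PCR-built and transcribed for each subunit of a heterodimeric triplet polymerase ribozyme and selected for one round in triplicate at −7 °C, frozen, before gel excision of extended constructs and streptavidin-bead capture. Input and output libraries were Illumina-sequenced, keeping genotypes with ≥10 input reads and ≥1 read per output. Fitness is a logarithmic ratio of genotype to wild-type enrichment, in base 2, using inverse-variance-weighted replicate averages.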

Row | Variant | polymerase ribozyme fitness (log ratio)
1 | U4G A21G A52G G141A | -2.63
2 | C5G C38A G58U | -1.06
3 | C5A A41C C54U C85A C103A G117A G133C A137U | ≤ -4.2
4 | U4C G11U G42C G48A U53G C57G G81U C85U | ≤ -4.2
5 | U4G A89C C131A | -3.28
6 | C5A C85U G86C A119C A120C | -3.07
7 | U4G A40C A49G C96A | -3.02
8 | C5A C14G A37U A52C C85G C99U G140U | ≤ -4.2
9 | U4G G50C A73G U102C | ≤ -4.2
10 | U4G C93U | -0.624
11 | C5G C54U G84A U127G | ≤ -4.2
12 | U4G G58A C85U A115U U144G | -2.13
13 | C5A U45G C85G | -2.33
14 | C5G G25C A28C C57G G58A C76G G143U | ≤ -4.2
15 | C5G A12G A21C A26U C38G U77A C118U | ≤ -4.2
16 | C5G C35U G80U C95U U104A | ≤ -4.2
17 | C5G A17G A20U C57U A66U G86C A107G C108A | ≤ -4.2
18 | U4G A21U U31A G84U A115C | -3.65
19 | C5A U44A A73U C79U C85U G126U | ≤ -4.2
20 | U4G U13G A30C U31A G50U C95U C103A C105U | ≤ -4.2
21 | U4G A20C C85U | -0.147

Row | Variant | polymerase ribozyme fitness (log ratio)
22 | C5G C36U C96G | -2.51
23 | U4C U6G U55A C93G C103G A150U | ≤ -4.2
24 | U4G A24G A47C C51A C54A C76G U82G G86U A115G | ≤ -4.2
25 | U4C C8A A39G U55A G88U C93U U102G | ≤ -4.2
26 | U4G C38A A47C C85G | -3.7
27 | C5G C18A C87G G143A | ≤ -4.2
28 | C5A G42C | -4.02
29 | C5G C35U G50A U55A C57A A66C C87A U134C | ≤ -4.2
30 | C5A U45G C85U A115U G141U | -3.86
31 | U4G | -0.0773
32 | U4G A49G C87G | ≤ -4.2
33 | C5A C32A U56A C85U A113C | ≤ -4.2
34 | C5G A39U G59U G68A A98G A115G A137G G143U | ≤ -4.2
35 | U4G G88U | -3.2
36 | U4C U55A | -0.767
37 | C5A G62C G67C G94A A106U | ≤ -4.2
38 | U4C C95U A122U | -0.317
39 | C5A A47U C76G G94C U101G | -4.01
40 | C5A U9A A41G C76G A91U G126A G136A | ≤ -4.2
41 | C5G A37U G141U | -1.94
42 | C5A A12G A23C G84A | -4.02

Row | Variant | polymerase ribozyme fitness (log ratio)
43 | C5A A30G C36U G68U G100A | ≤ -4.2
44 | U4C A23G C85U A98U G117A A119U G141U | ≤ -4.2
45 | C5A A19U G86C A147C | -3.38
46 | U4C C57U A66C C87U | ≤ -4.2
47 | C5A G92A U104G A120U C123A U130G | ≤ -4.2
48 | C5A C87U C129A | -3.51
49 | C5A A20U A21U A107G U145C C149U | ≤ -4.2
50 | C5A A20C | 0.413
51 | C5A U148G | -3.62
52 | U4G G94A A115U U151G | ≤ -4.2
53 | U4G U31G G50C G68A C75A G86U C95U U101A | ≤ -4.2
54 | C5A C27U | -1.46
55 | C5G A16G C35U C63A C85U | -1.82
56 | U4G C76U G84A C95U U111G | ≤ -4.2
57 | C5G A20U C35U G50U C93U | -3.76
58 | U4C U31C C76G C116G | ≤ -4.2
59 | U4G A20U C93G U109A A138G | ≤ -4.2
60 | C5A A28U U55A C57G C96U G141U | ≤ -4.2
61 | U4C C38U U55G C87A A106G | ≤ -4.2
62 | C5G A37U A40U C95A U139A | ≤ -4.2
63 | U4C C5G C32A A40C U82C A98G C103U A113C A150C | ≤ -4.2

Row | Variant | polymerase ribozyme fitness (log ratio)
64 | U4G A16G C54U G62C G71A U101G C105U A142G U144A | ≤ -4.2
65 | C5G A49U C57U C93G C103G U144C | ≤ -4.2
66 | U4G C8G A23C A52G C54G G74C | ≤ -4.2
67 | C5A C57G C72U A73U G80C C93G A110U | ≤ -4.2
68 | U4G C10A C35U G83U G88C A120C G143A | -4.17
69 | C5G C32U C96U A122G | -3.38
70 | C5G A12C A40U G58C G83U C118G | -3.96
71 | C5G A28G G48C G83C U104G G133U | ≤ -4.2
72 | C5A U61A U102G | ≤ -4.2
73 | C5G C18U A21C G86A C105A C123G | ≤ -4.2
74 | C5G A39C C87A G126A G136C | ≤ -4.2
75 | U4C U33A A40U U82G C96G C108U C118U U139C U148A | ≤ -4.2
76 | C5G A120C | -0.488
77 | U4G A39U A40U A91U C95G | ≤ -4.2
78 | U4G A22U A37C C95A C96A U127G | ≤ -4.2
79 | C5G C10U C76A C87U G92A | -2.35
80 | U4C G11U A49G U61A G80C A98G G141A | ≤ -4.2
81 | U4G C69G C96U A142C | -3.64
82 | U4G C8U U56A G84A | -1.05
83 | C5A G50A C105U C116A | -1.3
84 | C5G C8U A28C U33A U44A C85U U90A U139C | ≤ -4.2
